Results reported in patent US10098960B2, “Polymer conjugate” (UCL Business PLC, priority 2015, dated 2018).
Substitutions are numbered along the chain they refer to. Numbers in names are those of the source. Blank lines part the entries; values can stand above or below the molecule they belong to.

Assays:
[1] = test system: APS IgG-induced femoral vein thrombus formation; experiment: In vivo mouse blood clot model (blood vessel pinch model); set-up: species or system C57BL/6 mice; settings: recombinant wild-type DI 40 μg intraperitoneally at 0 h and 48 h; 500 μg APS IgG; femoral vein pinch at 72 h; FIG. 10
Procedure: In vivo analysis of inhibition of thrombus formation by DI was carried out in a similar manner to those described within Ioannou et al., 2009, Journal of Thrombosis and Haemostasis, 7: 833-842, In vivo inhibition of antiphospholipid antibody-induced pathogenicity utilizing the antigenic target peptide domain I of beta2-glycoprotein I: proof of concept.
C57BL/6 mice (The Jackson Laboratory, Bar Harbor, Me., USA) were used for these studies.
NHS IgG and APS IgG mean protein G purified antibody obtained from Normal Healthy Subjects or APS patients respectively.
At time 0 h, 2 control groups were untreated, whereas 3 groups of mice were injected intraperitoneally with either recombinant wild-type DI (40 μg), PEGylated wild-type DI (20 μg) or PEG alone, in phosphate-buffered saline (PBS). After 60 min, 4 groups of mice were then treated intraperitoneally with 500 μg of APS IgG, while 1 group received 500 μg of NHS IgG, both in PBS. Both of these treatments were repeated at 48 h and 49 h respectively. The APS IgG dose was the minimal amount of APS IgG antibody required to increase thrombus size beyond two standard deviations (SDs) of the mean size induced by control NHS IgG post-injury. The APS IgG/DI molar ratios were 2.3:1, 1.15:1. […] A pinch stimulus was applied and the thrombus formation was visualised using a transilluminator and measured electronically. […]

[2] = test system: aPL-induced venous thrombosis formation; settings: mouse model of APS; Ioannou et al. 2009; cited from earlier work
[3] = test system: binding of aPLs to immobilised native antigen; settings: aPLs from patients with pregnancy loss and with thrombosis; Ioannou et al. 2007; cited from earlier work
[4] = test system: purified IgG from patients with APS in normal human plasma (lupus anticoagulant effect); experiment: LA (Lupus Anticoagulant) dilute Russel Viper Venom (dRVT-plus) coagulometer assay; assay type: biochemical; settings: 500 μg/ml antibody and 25 μg/ml DI; IgG from four APS patients; FIGS. 8A-8D
Procedure: LA (Lupus Anticoagulant) Dilute Russel Viper Venom (dRVT-plus) Assay:
Assay reagents were used as described in manufacturer's (Haematex) instructions.
This assay reproduces the “lupus anticoagulant” (LA) effect, a test in which antibodies from serum of patients with APS cause a measurable prolongation of clotting time under specific conditions in vitro. Purified IgG from four patients with APS (shown as FIGS. 8A-8D) was pre-incubated with the DI constructs at a molar ratio of ˜1:1 (500 μg/ml antibody and 25 μg/ml DI) before being added to normal human plasma either with or without excess phospholipid—which prevents the anticoagulant effect of the IgG. The results are expressed as ratio of clotting time in absence to that in the presence of excess phospholipid. The higher the ratio, the greater the biological effect exerted by the IgG-APS.
Plasma was thawed on ice, meanwhile the Coagulometer (CA-50, Sysmex) was allowed to warm and reagents were prepared.
Patient antibodies were purified using Protein G IgG purification kit (Pierce), as described by manufacturer's instructions. IgA antibodies are purified using Jacalin beads (Pierce), as per manufacturer's instructions. […]
Plasma was dispensed into glass vials (200 μl×2) and reagents, either low [phospholipid] […] When the clot reached 50% the timing was stopped and recorded. […]

[5] = test system: IgA binding to immobilised β2GPI; experiment: Competitive inhibition ELISA for IgA binding to β2GPI; set-up: species or system human; settings: FIG. 9
Procedure: (§1) Competitive inhibition ELISA was carried out to test the ability of recombinant DI to inhibit binding of purified IgG from patients with APS to immobilised β2GPI. The assay was adapted from the standard β2GPI ELISA published by Ioannou et al., (BMC biotechnology 2006, 6:8) with the following amendments: the inhibitors were pre-incubated at concentrations ranging from 0 mg/ml to 200 μg/ml rather than 0 to 30 μM. Briefly, the test was carried out to test the ability of recombinant DI to inhibit binding of purified IgG from patients with APS to β2GPI coated on a plate. Recombinant DI was pre-incubated with patient serum prior to addition on the ELISA plate coated with β2GPI. Bound patient IgG was detected with an anti-human IgG HRP secondary antibody. Each sample was tested in duplicate.
Assays were carried out using identical methodology to Example 6 with the following alteration; an anti-human IgA secondary conjugated to HRP was used rather than an anti-human IgG secondary antibody.

[6] = test system: binding of purified IgG from patients with APS to immobilised β2GPI; experiment: Competitive inhibition ELISA (IgG); set-up: species or system human; settings: 175 μg/ml of test protein
Procedure: as §1
Competitive inhibition data is generally expressed as retained binding of the antibody to the antigen on the plate in the presence of the inhibitor protein (DI-PEG or DI). […] Activities of PEGylated or non-PEGylated DI are given based on % inhibition. FIGS. 7A-7F show % inhibition data for pegylated and non-pegylated DI constructs.

B2: DI(D8S/D9G): variant of domain I of human β2GP1, SEQ ID NO: 3, unconjugated (protein)
chain: GRTCPKPSGLPFSTVVPLKTFYEPGEEITYSCKPGYVSRGGMRKFICPLTGLWPINTLKCTPR
modifications: ends and bridges not checked
- inhibition of in vivo aPL-induced venous thrombosis formation [2]: inhibit in vivo aPL-induced venous thrombosis formation
- inhibition of binding of aPLs to immobilised native antigen [3]: inhibition is greater

B4: D8S, D9G mutant-PEG (20 kDa): D8S,D9G variant domain I (SEQ ID NO: 3) mono-PEGylated with 20 kDa PEG reagent (conjugate)
chain: B2 chain
modifications: ends and bridges not checked; also: mono-PEGylated with 20 kDa PEG reagent, site not given here
- Retained Activity of D8S, D9G mutant-PEG (20 kDa) Vs D8S, D9G (%) ([6]; Patient 1 IgG): 87.8%
- Retained Activity of D8S, D9G mutant-PEG (20 kDa) Vs D8S, D9G (%) ([6]; Patient 2 IgG): 70.8%
- Retained Activity of D8S, D9G mutant-PEG (20 kDa) Vs D8S, D9G (%) ([6]; Patient 3 IgG): 83.3%
- Retained Activity of D8S, D9G mutant-PEG (20 kDa) Vs D8S, D9G (%) ([6]; Patient 4 IgG): 100%
- Retained Activity of D8S, D9G mutant-PEG (20 kDa) Vs D8S, D9G (%) ([6]; Patient 5 IgG): 64%
- Retained Activity of D8S, D9G mutant-PEG (20 kDa) Vs D8S, D9G (%) ([6]; Patient 6 IgG): 100%

Second part, led by results:

- inhibition of IgA binding to β2GPI [5]: inhibits IgA binding to β2GPI
B1: wild-type DI: recombinant wild-type domain I of human β2GPI, SEQ ID NO: 2, approximately 7 kDa, unconjugated (protein, listed as Homo sapiens)
chain: B2 chain with S8D, G9D
modifications: ends and bridges not checked
- inhibition of thrombus formation (clot size) [1]: prevented the formation of large blood clots
- inhibition of in vivo aPL-induced venous thrombosis formation [2]: inhibit in vivo aPL-induced venous thrombosis formation
- inhibition of binding of aPLs to immobilised native antigen [3]: inhibit the binding of aPLs
- inhibition of lupus anticoagulant effect (ratio of clotting time in absence to presence of excess phospholipid) [4]: inhibit this biological effect of IgG APS

- Retained Activity of WT DI-PEG (20 kDa) Vs WT DI (%) ([6]; Patient 1 IgG): 98.5%
- Retained Activity of WT DI-PEG (20 kDa) Vs WT DI (%) ([6]; Patient 2 IgG): 74.9%
- Retained Activity of WT DI-PEG (20 kDa) Vs WT DI (%) ([6]; Patient 3 IgG): 88.3%
- Retained Activity of WT DI-PEG (20 kDa) Vs WT DI (%) ([6]; Patient 4 IgG): 91.5%
- Retained Activity of WT DI-PEG (20 kDa) Vs WT DI (%) ([6]; Patient 5 IgG): 70%
- Retained Activity of WT DI-PEG (20 kDa) Vs WT DI (%) ([6]; Patient 6 IgG): 91.9%
B3: WT DI-PEG (20 kDa): wild-type domain I β2GPI (SEQ ID NO: 2) mono-PEGylated across a disulfide bridge with 20 kDa PEG reagent 1 (conjugate, listed as Homo sapiens)
chain: B2 chain with S8D, G9D
modifications: not fully specified (bridges); ends and bridges not checked; also: mono-PEGylated across a disulfide bridge, Cys places not given here
